Paper PMC6572678, “Bulged and Canonical G-Quadruplex Conformations Determine NDPK Binding Specificity”

T1: ZmNDPK1 (nucleoside diphosphate kinase 1, homolog of human NM23-H2) (Zea mays, UniProt B4FK49 1-149)
T1 sequence: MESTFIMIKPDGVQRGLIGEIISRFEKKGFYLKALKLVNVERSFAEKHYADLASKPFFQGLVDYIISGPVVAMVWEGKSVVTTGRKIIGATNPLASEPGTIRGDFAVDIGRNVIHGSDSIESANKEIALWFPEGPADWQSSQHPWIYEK


Assays:
[1] = molecular target: T1, ZmNDPK1 (nucleoside diphosphate kinase …); assay: competition; 100-fold excess vs hex4_A5U, 20 mM KCl; Filter binding: oligos annealed in 10 mM TBA phosphate pH 7.5 + 20 mM KCl, 60 min incubation; competition 1 nM FAM probe, 100 nM competitor, 5 nM protein. FRET: 10 mM TBA pH 7.5 + 100 mM KCl or LiCl, 1 h at 4 °C, 0-1000 nM protein; settings: protein: recombinant, chain copies: 6
[2] = molecular target: T1, ZmNDPK1 (nucleoside diphosphate kinase …); assay: filter binding; 20 mM KCl; Filter binding: oligos annealed in 10 mM TBA phosphate pH 7.5 + 20 mM KCl, 60 min incubation; competition 1 nM FAM probe, 100 nM competitor, 5 nM protein. FRET: 10 mM TBA pH 7.5 + 100 mM KCl or LiCl, 1 h at 4 °C, 0-1000 nM protein; settings: protein: recombinant, chain copies: 6, label: 5' FAM (Kd)

Binder | binding signal ([1]; bulged G4, anti-h by CD) [% competition] | binding signal ([1]; bulged G4, parallel) [% competition] | also measured
GGGTTTTGAATGGAGTAGGAGTTAGGG (structured_DNA) [A5UBF] | 23 |  | 
GGGTTTTGAATTTATGAGGAGGGAGGG (structured_DNA) [A5UEH] |  | 81 | 
GGGTTTTGAAGGGATTATGAGGTAGGG (structured_DNA) [A5UAG] | 40 |  | 
GGGTTTTGAAGGGATTAGGAGTTAGGG (structured_DNA) [A5UAF] | 15 |  | 
GGGTTTTGAATTGAGGATTAGGGAGGG (structured_DNA) [A5UCH] |  | 76 | 
GGGTTTTGAAGGGATTATTAGGGAGGG (structured_DNA) [A5UAH (canonical; trim_AH)] |  |  | Kd ([2]; canonical G4, parallel): 14.4 nM; binding signal ([1]; label: 5' FAM (Kd), canonical G4, parallel): 77 % competition
GGGTTTTGAATTTAGGAGTAGGGAGGG (structured_DNA) [A5UDH] |  | 77 | 
GGGTTTTGAATTGAGGAGGAGTTAGGG (structured_DNA) [A5UCF] |  | 62 | 
GGGTTTTGAAGGGATGAGGATTTAGGG (structured_DNA) [A5UAE] |  |  | Kd ([2]; bulged G4, anti-h by CD): 194 nM; binding signal ([1]; label: 5' FAM (Kd), bulged G4, anti-h by CD): 16 % competition
GGGTTTTGAATGGAGTATGAGGTAGGG (structured_DNA) [A5UBG] | 50 |  | 
GGGTTTTGAATGGAGTATTAGGGAGGG (structured_DNA) [A5UBH] |  | 85 | 
GGGTTTTGAAGGGAGGAGTATTTAGGG (structured_DNA) [A5UAD] |  | 73 | 
GGGTTTTGAATTGAGGATGAGGTAGGG (structured_DNA) [A5UCG] |  |  | binding signal ([1]; bulged G4, mixed by CD): 36 % competition
